This sample holds only a part of the variants without activity.
B1: TPR 5TU (parent)
chain: GGAUCUUCUCGAUCUAACAAAAAAGACAAAUCUGCCACAAAGCUUGAGAGCAUCUUCGGAUGCAGAGGCGGCAGCCUUCGGUGGCGCGAUAGCGCCAACGUUCUCAACUAUGACACGCAAAACGCGUGCUCCGUUGAAUGGAGUUUAUCAUG

Variants of: B1
Assay: polymerase ribozyme fitness, log enrichment relative to wild type (log ratio); higher = more active; in vitro selection for triplet polymerase activity
How it was run: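 A single round of triplicate in vitro selection, including frozen incubation at −7 °C, was applied to PCR-built, transcribed mutant libraries of each subunit of a heterodimeric triplet polymerase ribozyme. Illumina sequencing of input and output libraries retained genotypes with ≥10 input reads and ≥1 read per output. Fitness is the base-2 logarithm of genotype enrichment divided by wild-type enrichment, from inverse-variance-weighted replicate averages.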
With U44A G48C G59A U82C C116G C123U U134C the “polymerase ribozyme fitness (log ratio)” value was ≤ -4.2.
For A29C A30U G42U C93U C105G U139G, the “polymerase ribozyme fitness (log ratio)” value was ≤ -4.2.
In the case of C38U G46U G84A U127G G143C, the “polymerase ribozyme fitness (log ratio)” value is reported as ≤ -4.2.
With U31A G58C G74C U139C U146A the “polymerase ribozyme fitness (log ratio)” value was ≤ -4.2.
In the case of C8A C35G C51U G59A A73G C76A C85G A138U U151C, the “polymerase ribozyme fitness (log ratio)” value is reported as ≤ -4.2.
In the case of G42C G83A A106U, the “polymerase ribozyme fitness (log ratio)” value is reported as ≤ -4.2.
With C18U A19G G94A the “polymerase ribozyme fitness (log ratio)” value was -2.01.
For U4G A39G A142G, the “polymerase ribozyme fitness (log ratio)” value was -3.9.
For C85G G92C A121C C132U U146A, the “polymerase ribozyme fitness (log ratio)” value was ≤ -4.2.
In the case of A3G A12C C76G C93A C96A G136C, the “polymerase ribozyme fitness (log ratio)” value is reported as ≤ -4.2.
With A23C A60G C96A C118U the “polymerase ribozyme fitness (log ratio)” value was ≤ -4.2.
For C14U A41U U56A C93A C123A, the “polymerase ribozyme fitness (log ratio)” value was ≤ -4.2.
In the case of C38U G65C G70U C85G U111G A115U U127G G140C U146G, the “polymerase ribozyme fitness (log ratio)” value is reported as ≤ -4.2.
For U4A A60C G71U G92C C108G G117A G124U A137C, the “polymerase ribozyme fitness (log ratio)” value was ≤ -4.2.
For A20U A21G A30G C99A, the “polymerase ribozyme fitness (log ratio)” value was -4.05.
With U56A C96G the “polymerase ribozyme fitness (log ratio)” value was -0.228.
With U7G U15G U56G C93A A115C U130G the “polymerase ribozyme fitness (log ratio)” value was ≤ -4.2.
For A52G G59A G92A, the “polymerase ribozyme fitness (log ratio)” value was -3.59.
In the case of C51U G58A G124C, the “polymerase ribozyme fitness (log ratio)” value is reported as -1.29.
For A22G G117A, the “polymerase ribozyme fitness (log ratio)” value was 1.13.
In the case of C14G G88U G140A, the “polymerase ribozyme fitness (log ratio)” value is reported as ≤ -4.2.
For A26U A122G C131A, the “polymerase ribozyme fitness (log ratio)” value was -3.89.
With A39U C99A the “polymerase ribozyme fitness (log ratio)” value was -3.7.
With A19G C27A C57A G92U A97G G133A U134G the “polymerase ribozyme fitness (log ratio)” value was ≤ -4.2.
For U33G G68A C87G C108U A120C G136U, the “polymerase ribozyme fitness (log ratio)” value was ≤ -4.2.
With C8G A24G C76A U139A A142C U144C U148G the “polymerase ribozyme fitness (log ratio)” value was ≤ -4.2.
With G42U C85A C99U C108G A110G the “polymerase ribozyme fitness (log ratio)” value was ≤ -4.2.
In the case of U4C G11U U53C, the “polymerase ribozyme fitness (log ratio)” value is reported as -2.27.
For G11C A41C C95A U146G, the “polymerase ribozyme fitness (log ratio)” value was -3.34.
In the case of U9G G25C C27U C35U U102A A147C, the “polymerase ribozyme fitness (log ratio)” value is reported as ≤ -4.2.
In the case of U31G C57A G136A G140A U146A, the “polymerase ribozyme fitness (log ratio)” value is reported as -3.1.
For A121U G143C, the “polymerase ribozyme fitness (log ratio)” value was -1.7.
For G50C C54U U56A G59U, the “polymerase ribozyme fitness (log ratio)” value was -3.48.
For A22U U82G C93A G124U C125U, the “polymerase ribozyme fitness (log ratio)” value was -2.61.
In the case of G84U A120U, the “polymerase ribozyme fitness (log ratio)” value is reported as -2.07.
In the case of C76A A89C, the “polymerase ribozyme fitness (log ratio)” value is reported as -0.238.
For G50A G136U U144G U146C, the “polymerase ribozyme fitness (log ratio)” value was -2.38.
For C54U A64G C116G U139G, the “polymerase ribozyme fitness (log ratio)” value was ≤ -4.2.
For C93G U144A, the “polymerase ribozyme fitness (log ratio)” value was -2.68.
In the case of A12U A23U U45C A97G A98U C131G C132U, the “polymerase ribozyme fitness (log ratio)” value is reported as -4.12.
In the case of A19U G92C, the “polymerase ribozyme fitness (log ratio)” value is reported as -1.68.
In the case of A30C A91C A98U A119U, the “polymerase ribozyme fitness (log ratio)” value is reported as ≤ -4.2.
For G42U A60G U139C U148A, the “polymerase ribozyme fitness (log ratio)” value was -4.08.
For C35U A98G C99A U101C G141A, the “polymerase ribozyme fitness (log ratio)” value was ≤ -4.2.
In the case of G25U C36U G67C C85G C87U A89U, the “polymerase ribozyme fitness (log ratio)” value is reported as ≤ -4.2.
In the case of C10U C38U A73G A89G A97G C116G A122U C129A, the “polymerase ribozyme fitness (log ratio)” value is reported as ≤ -4.2.
For U45G G50A C54U A120C G126C, the “polymerase ribozyme fitness (log ratio)” value was ≤ -4.2.
With C51A A52C A64C C95U U101C A121C G133C U135G the “polymerase ribozyme fitness (log ratio)” value was ≤ -4.2.
With G92C A122C A150G the “polymerase ribozyme fitness (log ratio)” value was -2.28.
With U13G A24U A37G U134C the “polymerase ribozyme fitness (log ratio)” value was -4.14.
For A20U A26G C27A C36U C93U A147U, the “polymerase ribozyme fitness (log ratio)” value was ≤ -4.2.
For C14A G58U, the “polymerase ribozyme fitness (log ratio)” value was -1.88.
In the case of G25U A30G C51A C105U G133C, the “polymerase ribozyme fitness (log ratio)” value is reported as ≤ -4.2.
For C54A G70C G88A C93G U134A U146A, the “polymerase ribozyme fitness (log ratio)” value was ≤ -4.2.
In the case of G50C G68U C85U G92U A106G, the “polymerase ribozyme fitness (log ratio)” value is reported as ≤ -4.2.
In the case of C85G C118G, the “polymerase ribozyme fitness (log ratio)” value is reported as -2.62.
For C18G G92C C129U A150U, the “polymerase ribozyme fitness (log ratio)” value was -3.54.
In the case of A47C C103G U135G, the “polymerase ribozyme fitness (log ratio)” value is reported as ≤ -4.2.
With C38G C85A G94U C103G the “polymerase ribozyme fitness (log ratio)” value was -2.31.
For A3U G11C U44A G58C G62A G68A G94C, the “polymerase ribozyme fitness (log ratio)” value was ≤ -4.2.
With C57G A73G C116U the “polymerase ribozyme fitness (log ratio)” value was -0.324.
In the case of A97C A119G, the “polymerase ribozyme fitness (log ratio)” value is reported as 0.72.
With G68C G81U C96U U109C the “polymerase ribozyme fitness (log ratio)” value was ≤ -4.2.
For C38A U90A G92A C103G G117U A138G, the “polymerase ribozyme fitness (log ratio)” value was ≤ -4.2.
With U4C C5A A24U A41G G46C C85U C96G the “polymerase ribozyme fitness (log ratio)” value was -3.3.
With U4A C54U G92U C118U U134A the “polymerase ribozyme fitness (log ratio)” value was -3.6.
With C85G U139A the “polymerase ribozyme fitness (log ratio)” value was -4.19.
In the case of C32A G67A G83A, the “polymerase ribozyme fitness (log ratio)” value is reported as ≤ -4.2.
In the case of A3U U7A C14A A41C U45G C69A C87A G94A A121C, the “polymerase ribozyme fitness (log ratio)” value is reported as ≤ -4.2.
In the case of G83U A97G A110U G117U, the “polymerase ribozyme fitness (log ratio)” value is reported as -3.7.
With C38U A73G C103A the “polymerase ribozyme fitness (log ratio)” value was -3.99.
In the case of C32U A49U C51U C75U U102C U146G, the “polymerase ribozyme fitness (log ratio)” value is reported as ≤ -4.2.
For G48C C51A C54A C63U G68A U77C G88A C96U A142G, the “polymerase ribozyme fitness (log ratio)” value was ≤ -4.2.
With G86U A147G the “polymerase ribozyme fitness (log ratio)” value was -3.45.
In the case of A21G G58A A122U U145G, the “polymerase ribozyme fitness (log ratio)” value is reported as 0.687.
For A17G C38U G81A C96A, the “polymerase ribozyme fitness (log ratio)” value was 0.341.
For A47U C85G, the “polymerase ribozyme fitness (log ratio)” value was -2.65.
In the case of U6G A26C G83U A89U, the “polymerase ribozyme fitness (log ratio)” value is reported as -3.85.
For C43G U55A C96A A98C A121U, the “polymerase ribozyme fitness (log ratio)” value was ≤ -4.2.
With C5G A12G G83A G94A G141C the “polymerase ribozyme fitness (log ratio)” value was -4.19.
With G58C C76A G83U the “polymerase ribozyme fitness (log ratio)” value was -2.66.
With A60G C85U U144G the “polymerase ribozyme fitness (log ratio)” value was 0.543.
In the case of A37C G50U A52C U90C G94C C116U, the “polymerase ribozyme fitness (log ratio)” value is reported as ≤ -4.2.

— the RNAGym collection of RNA variant scans (doi:10.1073/pnas.2313332121)
